System: MS2 coat protein
Assay: apparent KD of MS2 coat protein; designed switch direction (-1 OFF switch, 1 ON switch): -1; higher = weaker reporter binding
Summary of the method: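 The reported apparent KD is a per-design median over clusters, from curve fits of normalised cluster fluorescence. Protein titrations used SNAP-549-labelled MS2 coat protein, doubled from 0.7 or 1.5 nM to 3 µM, in Tris-HCl pH 7.5 buffer with KCl, MgCl2, BSA, DTT, tRNA and Tween-20, with no input, 200 uM small-molecule ligand, or an oligonucleotide input. The RNA switches were transcribed on Illumina chips by stalled E. coli RNA polymerase.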

[1] = input ligand: microRNA oligo, concentration not stated
[2] = Eterna round: R95, input ligand: FMN 200 uM
[3] = Eterna round: R95, input ligand: microRNA oligo, concentration not stated
[4] = Eterna round: R95, input ligand: none

Sequence | apparent KD of MS2 coat protein (input ligand: FMN 200 uM) [nM] | apparent KD of MS2 coat protein (input ligand: none) [nM] | also measured
AUGAGCAGACGGAGAUCCAACAUGAGGAUCACCCAUGUCUCAUAAGCUUUUUGUUCAUCUUAUUGUACCUUGGUGCA [Mat - Sensor v3 - turn-off var 1 - JL Mod - D25] (Eterna round: R96, puzzle: Sensor v3, turn-off variant 1) | 242 | 198 | apparent KD of MS2 coat protein [1]: 25.4 nM
UUUAUAGUAGGAUAUACAUGAGGAUCACCCAUGUAGUAGGGAAGACCUUGGUGGGAACGUAGAAGGACUUGGAG [Eternabot (L2) Solution 44] (Eterna round: R97, puzzle: Exclusion 3) | 73.3 | 74.2 | 
AGAUGGCGAGGAUAUACAUGAGGAUCACCCAUGUGAAGAUAAUAAGUGAGGAAGAAAAGUAGAAGGCGCUGUCA [Mat - Exclusion 3 - Mod of Salish D26] (puzzle: Exclusion 3) |  |  | apparent KD of MS2 coat protein [2]: 398 nM; apparent KD of MS2 coat protein [3]: 72.6 nM; apparent KD of MS2 coat protein [4]: 70.4 nM
GCAGGUUAAGUCAGGAUAUACCUAUGGAUACAUAGGUAGAAGGGACAUGAGGAUCACCCAUGUGCCUCGCCUGC [Fiskers BMX 4 - 58] (puzzle: Brourd's mod of Exclusion 4) |  |  | apparent KD of MS2 coat protein [3]: 15.4 nM
GUCAUCACACAUGGGAUCAACAUGAGGAUCACCCAUGUUGUCAAGUUUUUUGCUCGUCUUAUAAUACGUUUGAUGAC [Mod-Jxc] (Eterna round: R97, puzzle: Sensor, turn-off variant 1) | 26.7 |  | 
GUUGCUACUGAGGAUAUUAUUUUACCCGACUGAUAAGAAGGCAGUACAUGAGGAUCACCCAUGUGGGUAGCCAG [Polaris15] (Eterna round: R97, puzzle: Exclusion 6) | 44.1 | 21.8 | 
GCUUGUGGGCAAGGAUAUCCUACGUUGUUCUGGUUCGUGUCUGUCACAUGAGGAUCACCCAUGUGGGAGAAGGUGCAUUUGGUG [Design 61] (Eterna round: R96, puzzle: Exclusion NG 2) |  |  | apparent KD of MS2 coat protein [1]: 12.9 nM
AAAUUAACUUAGGAUAUCGGCUGAAACAGCGUACGAGAAGGAAGUACAUGAGGAUCACCCAUGUGUCCCGUGCU [Teentibi] (Eterna round: R97, puzzle: Exclusion 6) | 68.6 | 38.1 | 
UAUUACGCAAGCAGGUCCCACAUGAGGAUCACCCAUGUGCUCGUCUUAUAACGAUCUGUGGGAAAACCUACGGAUCG [Elimod 19 - Jieux - Sensor, turn-off variant 1] (Eterna round: R97, puzzle: Sensor, turn-off variant 1) | 45.8 | 48.4 | 
GAUUGAGAGCAGGAUAUCUUAGAAAUGUAUGAAAGAGAAGGGCUCACAUGAGGAUCACCCAUGUGGUCCUAGAU [JL Dibiri mod 17] (Eterna round: R96, puzzle: Exclusion 6) | 162 | 25.4 | apparent KD of MS2 coat protein [1]: 17.9 nM
UGGUAACAUGAGGAUCACCCAUGUCAGGAUAUCAGGAAGAAGAGAGGAGAGGAGAAGAUGAGAAGGGACUAUAU [Excluse me! 11 - Jieux - Exclusion 1] (puzzle: Exclusion 1) |  |  | apparent KD of MS2 coat protein [2]: 21.6 nM; apparent KD of MS2 coat protein [3]: 19.8 nM; apparent KD of MS2 coat protein [4]: 26.2 nM
AGUACUAACACGAAAGUGUUAGUACAAUAAGCUUGUGUAACAUGAGGAUCACCCAUGUCCUCAUAAGCUCGUCUUAU [salish99_TOv2_r3_043] (puzzle: Sensor v3, turn-off variant 2) |  |  | apparent KD of MS2 coat protein [2]: 50.6 nM; apparent KD of MS2 coat protein [3]: 38.3 nM; apparent KD of MS2 coat protein [4]: 51.6 nM
GCCAUGUAAGGAUAUAACCGUCUUCAUGAACAAUGAGGAUGUUAGAAGGUACAUGAGGAUCACCCAUGUCCUUC [Eternabot (Original) Solution 6] (Eterna round: R97, puzzle: Exclusion 4) | 15.7 | 12.5 | 
UUUCCCGUUCAGGCUGGAAACAUGAGGAUCACCCAUGUUCAAUCGGUUCUGUUAGCUGCUCGUCUUUUACACUUUCC [Eternabot (L1) Solution 39] (Eterna round: R97, puzzle: Sensor, turn-off variant 1) | 20.5 | 20.3 | 
UAACUUCUAGUAAGGAUAUCGGUCCCAAGGGACAACGAGAAGGUACAUGAGGAUCACCCAUGUGAAAUAAGAAU [Mod of Zala 2 - Jieux - Brourd's Mod of Exclusion 4] (Eterna round: R97, puzzle: Brourd's mod of Exclusion 4) | 72.9 | 20.7 | 
ACAGACCGUGUUAGGAUAUUAUUUUACUCAAGUAGUGAGAAGGGACAUGAGGAUCACCCAUGUGUGGGAGUUGA [Eternabot (L2) Solution 42] (Eterna round: R97, puzzle: Brourd's mod of Exclusion 4) | 83 | 87 | 
UCCACACAUGAGGAUCACCCAUGUGAGGAUAUCAUGCUUCGUAGUAAACUACGAAGUGUGAGAAGGCACAUGGC [Omei Ex1 D13] (Eterna round: R97, puzzle: Exclusion 1) | 94.7 | 24.9 | 

Sequence | apparent KD of MS2 coat protein (input ligand: FMN 200 uM) [nM] | apparent KD of MS2 coat protein (input ligand: none) [nM] | also measured
UUUACAAGCUAUAGAUCCCACAUGAGGAUCACCCAUGUUCCUGGCCGUGAGGCUAGGUAAACUAUUGCUCGUCUUAU [JL TOV1 3.66] (Eterna round: R97, puzzle: Sensor, turn-off variant 1) | 252 | 294 | 
UCGGGCGCAGGAUAUGCCUUCCGGUACAUGAGGAUCACCCAUGUCGGGCAGUGCUGCGGAGUAGAAGGGCGUUGAG [Eternabot (L2) Solution 74] (Eterna round: R97, puzzle: Exclusion 5) | 15.8 | 16.6 | 
UCGGCGCGAGGAUAUGCGGUUCCUCCCUCGGGCCGGAGCGUACAUGAGGAUCACCCAUGUAGAAGGCGCGCCGC [Apr-15 SS2-36] (puzzle: Exclusion 2) |  |  | apparent KD of MS2 coat protein [3]: 11.7 nM
UUUAAUCGUGACAUGGGUGACAUGAGGAUCACCCAUGUCACAAGCUUUUUGCUCGUCUUAUAAUUAACCCAUGUCAC [LRO Sensor-off var1-11 mod of Stov1-13-A1 by Brourd] (Eterna round: R97, puzzle: Sensor, turn-off variant 1) | 15.1 | 15.6 | 
GGCAUGUGAGGAUAUGUACCUGAGUGCUUUGCGCUCAGGAAACAGAAGGCACAUGAGGAUCACCCAUGUGAAAU [jl-ex4-4.48 ViennaUCT mod] (Eterna round: R97, puzzle: Exclusion 4) | 96.8 | 251 | 
AAGUAGUCUGUGAGGAUAUUGGUGGAAUGACACAUUAAGAAGGUACAUGAGGAUCACCCAUGUGGGUAAAGACG [Brourd's EX4 #24] (Eterna round: R97, puzzle: Brourd's mod of Exclusion 4) | 115 | 109 | 
UUUUUUUUGCGAGGAUAUGCUUUUAGUUAGUUAGCAGAAGGCGCGUUUCUUUUCUCCUCUUCUUACAUGAGGAUCACCCAUGUU [JR_ExcNG1_Sub034] (Eterna round: R96, puzzle: Exclusion NG 1) | 55.7 | 54.1 | apparent KD of MS2 coat protein [1]: 36.7 nM
GUGAAACAUGAGGAUCACCCAUGUCAGGAUAUGCGAAUUUCAUCAAAAGAUGAAAUUUGCAGAAGGGACUGUAC [Omei Ex1 A21] (Eterna round: R97, puzzle: Exclusion 1) | 136 | 70.3 | 
CUUUUGUGAGGAUAUUCGUAGUAGGGUCAUGGUACUAUUACGGAGAAGGCACAUGAGGAUCACCCAUGUACCUU [EX4 #44] (Eterna round: R97, puzzle: Exclusion 4) | 25 | 15.8 | 
AUGGACGCAGGAUAUACAUGAGGAUCACCCAUGUUAGGGUUAAGAGAAGGAAGGGAGAGUAGAAGGGCGAGAGU [JR_Exclu3_Sub0100] (puzzle: Exclusion 3) |  |  | apparent KD of MS2 coat protein [3]: 110 nM
UAUUUAGCAAGCAGAUCCUACAUGAGGAUCACCCAUGUGCUCUGAACGUACAGAAUUACUGUACGAGCUCGUCUUAU [Winner reversed engineered 29] (Eterna round: R97, puzzle: Sensor, turn-off variant 1) | 166 | 198 | 
AUCCUCACUUUUUAAGCGAACAUGAGGAUCACCCAUGUACAAGCUUUUUGCUCGGCUUAUAAAGGGUUGGAAACAAC [Alacar Attempt 3] (Eterna round: R97, puzzle: Sensor, turn-off variant 1) | 16.8 | 16 | 
UGAUUGUGAGGAUAUUCUGAAUAAGGCACGGGCGUCUUAUUGAAGAAGGCACAUGAGGAUCACCCAUGUGGGUU [Eternabot (L2) Solution 90] (Eterna round: R97, puzzle: Exclusion 4) | 248 | 188 | 
CCGGAUAUGCAGGAUAUCGUAUCGGAUACGAUACGAGAAGGGUAUACAUGAGGAUCACCCAUGUGCCUUACCGG [Mat - Exclusion 6 - Eli Mod - D83] (puzzle: Exclusion 6) |  |  | apparent KD of MS2 coat protein [3]: 18 nM
AAACGGCAGGGAGGAUAUGCUUACCUGGGUCGUCUUCAGACAUGAGGAUCACCCAUGUAGUCGACGCAGAAGGCCCUCAAAGCC [JL ViennaUCT Ontiis mod 3] (Eterna round: R96, puzzle: Exclusion NG 2) | 413 | 51.1 | apparent KD of MS2 coat protein [1]: 38.7 nM
CUUCUCAAAGGAUAUCACGGUAAUAACAUGAGGAUCACCCAUGUGCAAUUCGUGUCCCUGUGAGAAGGUUGAGAAG [Remaor] (Eterna round: R96, puzzle: Exclusion 5) | 19.5 | 13.2 | apparent KD of MS2 coat protein [1]: 11.1 nM

Source: the supplement of paper PMC9170038
